Assays:
[1] = molecular target: … (SEQ ID NO: 28) on HLA-A2 of pulsed T2 cells; experiment: cell-based or functional assay
[2] = molecular target: … (SEQ ID NO: 26) on HLA-A2 of pulsed T2 cells; experiment: cell-based or functional assay
[3] = molecular target: … (SEQ ID NO: 23) on HLA-A2 of pulsed T2 cells; experiment: cell-based or functional assay
[4] = molecular target: … (SEQ ID NO: 27) on HLA-A2 of pulsed T2 cells; experiment: cell-based or functional assay
[5] = molecular target: … (SEQ ID NO: 24) on HLA-A2 of pulsed T2 cells; experiment: cell-based or functional assay
[6] = molecular target: NY-ESO-1 157-165 peptide … (SEQ ID NO: 2) on HLA-A2 of peptide-pulsed cells; experiment: cell-based or functional assay
[7] = molecular target: … (SEQ ID NO: 25) on HLA-A2 of pulsed T2 cells; experiment: cell-based or functional assay
[8] = molecular target: NY-ESO-1 peptide on HLA-A*02:01 (human); experiment: IFN-gamma ELISA; PBL transduced with 1G4-LY, after one OKT3 stimulation, peptide-pulsed T2 cells; full-length, on cells

Work on 1G4-LY TCR yielded an IFN-γ (pg/ml); Donor K PBL, T2 + 1 ng/µL peptide [1] of 0 pg/mL, an IFN-γ (pg/ml); Donor K PBL, T2 + 10 ng/µL peptide [1] of 0 pg/mL and an IFN-γ (pg/ml); Donor L PBL, T2 + 1 ng/µL peptide [1] of 82 pg/mL. The IFN-γ (pg/ml); Donor L PBL, T2 + 10 ng/µL peptide [1] was 97 pg/mL, the IFN-γ (pg/ml); Donor K PBL, T2 + 1 ng/µL peptide [2] was 884 pg/mL and the IFN-γ (pg/ml); Donor K PBL, T2 + 10 ng/µL peptide [2] was 1110 pg/mL. For the same substance, the IFN-γ (pg/ml); Donor L PBL, T2 + 1 ng/µL peptide [2] was 220 pg/mL, the IFN-γ (pg/ml); Donor L PBL, T2 + 10 ng/µL peptide [2] was 297 pg/mL and the IFN-γ (pg/ml); Donor K PBL, T2 + 1 ng/µL peptide [3] was 1780 pg/mL. For the same substance, the IFN-γ (pg/ml); Donor K PBL, T2 + 10 ng/µL peptide [3] was 3270 pg/mL, the IFN-γ (pg/ml); Donor L PBL, T2 + 1 ng/µL peptide [3] was 370 pg/mL and the IFN-γ (pg/ml); Donor L PBL, T2 + 10 ng/µL peptide [3] was 1380 pg/mL. The IFN-γ (pg/ml); Donor K PBL, T2 + 1 ng/µL peptide [4] was 457 pg/mL, the IFN-γ (pg/ml); Donor K PBL, T2 + 10 ng/µL peptide [4] was 5670 pg/mL and the IFN-γ (pg/ml); Donor L PBL, T2 + 1 ng/µL peptide [4] was 208 pg/mL. It also gave an IFN-γ (pg/ml); Donor L PBL, T2 + 10 ng/µL peptide [4] of 1030 pg/mL, an IFN-γ (pg/ml); Donor K PBL, T2 + 1 ng/µL peptide [5] of 0 pg/mL and an IFN-γ (pg/ml); Donor K PBL, T2 + 10 ng/µL peptide [5] of 0 pg/mL. The IFN-γ (pg/ml); Donor L PBL, T2 + 1 ng/µL peptide [5] was 225 pg/mL, the IFN-γ (pg/ml); Donor L PBL, T2 + 10 ng/µL peptide [5] was 185 pg/mL and the IFN-γ (pg/ml); Donor H after expanding numbers of cells, T2 + 0.1 ng/µl peptide [6] was 89 pg/mL. For the same substance, the IFN-γ (pg/ml); Donor H after expanding numbers of cells, T2 + 1 ng/µl peptide [6] was 512 pg/mL, the IFN-γ (pg/ml); Donor H after expanding numbers of cells, T2 + 10 ng/µl peptide [6] was 2970 pg/mL and the IFN-γ (pg/ml); Donor H after expanding numbers of cells, T2 + 100 ng/µl peptide [6] was 4340 pg/mL. It also gave an IFN-γ (pg/ml); Donor H after stimulation with OKT3, T2 + 0.1 ng/µl peptide [6] of 1400 pg/mL, an IFN-γ (pg/ml); Donor H after stimulation with OKT3, T2 + 1 ng/µl peptide [6] of 1710 pg/mL and an IFN-γ (pg/ml); Donor H after stimulation with OKT3, T2 + 10 ng/µl peptide [6] of 3020 pg/mL. The IFN-γ (pg/ml); Donor H after stimulation with OKT3, T2 + 100 ng/µl peptide [6] was 3780 pg/mL, the IFN-γ (pg/ml); Donor K PBL, T2 + 1 ng/µL peptide [6] was 678 pg/mL and the IFN-γ (pg/ml); Donor K PBL, T2 + 10 ng/µL peptide [6] was 3760 pg/mL. The IFN-γ (pg/ml); Donor L PBL, T2 + 1 ng/µL peptide [6] was 184 pg/mL, the IFN-γ (pg/ml); Donor L PBL, T2 + 10 ng/µL peptide [6] was 754 pg/mL and the IFN-γ (pg/ml); Patient 1 PBL S1D7, T2 + 0.1 ng/ml peptide [6] was 0 pg/mL. For the same substance, the IFN-γ (pg/ml); Patient 1 PBL S1D7, T2 + 1 ng/ml peptide [6] was 677 pg/mL, the IFN-γ (pg/ml); Patient 1 PBL S1D7, T2 + 10 ng/ml peptide [6] was 1090 pg/mL and the IFN-γ (pg/ml); Patient 1 PBL S1D7, T2 + 100 ng/ml peptide [6] was 1600 pg/mL. It also gave an IFN-γ (pg/ml); Patient 1 PBL S1D7, T2 + 1 µg/ml peptide [6] of 2170 pg/mL, an IFN-γ (pg/ml); Patient 1 expanded PBL S2D9, T2 + 0.1 ng/ml peptide [6] of 1330 pg/mL and an IFN-γ (pg/ml); Patient 1 expanded PBL S2D9, T2 + 1 ng/ml peptide [6] of 7260 pg/mL. For the same substance, the IFN-γ (pg/ml); Patient 1 expanded PBL S2D9, T2 + 10 ng/ml peptide [6] was 16200 pg/mL, the IFN-γ (pg/ml); Patient 1 expanded PBL S2D9, T2 + 100 ng/ml peptide [6] was 21600 pg/mL and the IFN-γ (pg/ml); Patient 1 expanded PBL S2D9, T2 + 1 µg/ml peptide [6] was 30600 pg/mL. It also gave an IFN-γ (pg/ml); Patient 2 PBL S1D7, T2 + 0.1 ng/ml peptide [6] of 40 pg/mL, an IFN-γ (pg/ml); Patient 2 PBL S1D7, T2 + 1 ng/ml peptide [6] of 291 pg/mL and an IFN-γ (pg/ml); Patient 2 PBL S1D7, T2 + 10 ng/ml peptide [6] of 879 pg/mL. It also gave an IFN-γ (pg/ml); Patient 2 PBL S1D7, T2 + 100 ng/ml peptide [6] of 1280 pg/mL, an IFN-γ (pg/ml); Patient 2 PBL S1D7, T2 + 1 µg/ml peptide [6] of 2440 pg/mL and an IFN-γ (pg/ml); Patient 2 expanded PBL S2D9, T2 + 0.1 ng/ml peptide [6] of 662 pg/mL. For the same substance, the IFN-γ (pg/ml); Patient 2 expanded PBL S2D9, T2 + 1 ng/ml peptide [6] was 2500 pg/mL, the IFN-γ (pg/ml); Patient 2 expanded PBL S2D9, T2 + 10 ng/ml peptide [6] was 6800 pg/mL and the IFN-γ (pg/ml); Patient 2 expanded PBL S2D9, T2 + 100 ng/ml peptide [6] was 10600 pg/mL. The IFN-γ (pg/ml); Patient 2 expanded PBL S2D9, T2 + 1 µg/ml peptide [6] was 19400 pg/mL, the lowest peptide concentration on T2 cells that was recognized (IFN-γ) [6] was 0.1 ng/mL and the IFN-γ (pg/ml); Donor K PBL, T2 + 1 ng/µL peptide [7] was 0 pg/mL. The IFN-γ (pg/ml); Donor K PBL, T2 + 10 ng/µL peptide [7] was 0 pg/mL, the IFN-γ (pg/ml); Donor L PBL, T2 + 1 ng/µL peptide [7] was 148 pg/mL and the IFN-γ (pg/ml); Donor L PBL, T2 + 10 ng/µL peptide [7] was 294 pg/mL. It also gave a lowest peptide concentration recognised [8] of less than 0.1 ng/mL.

wild-type human anti-NY-ESO-1 TCR (1G4) gave an IFN-γ (pg/ml); Patient 1 PBL S1D7, T2 + 0.1 ng/ml peptide [6] of 99 pg/mL, an IFN-γ (pg/ml); Patient 1 PBL S1D7, T2 + 1 ng/ml peptide [6] of 851 pg/mL and an IFN-γ (pg/ml); Patient 1 PBL S1D7, T2 + 10 ng/ml peptide [6] of 1520 pg/mL. For the same substance, the IFN-γ (pg/ml); Patient 1 PBL S1D7, T2 + 100 ng/ml peptide [6] was 2480 pg/mL, the IFN-γ (pg/ml); Patient 1 PBL S1D7, T2 + 1 µg/ml peptide [6] was 2450 pg/mL and the IFN-γ (pg/ml); Patient 1 expanded PBL S2D9, T2 + 0.1 ng/ml peptide [6] was 1280 pg/mL. It also gave an IFN-γ (pg/ml); Patient 1 expanded PBL S2D9, T2 + 1 ng/ml peptide [6] of 6990 pg/mL, an IFN-γ (pg/ml); Patient 1 expanded PBL S2D9, T2 + 10 ng/ml peptide [6] of 13500 pg/mL and an IFN-γ (pg/ml); Patient 1 expanded PBL S2D9, T2 + 100 ng/ml peptide [6] of 19400 pg/mL. The IFN-γ (pg/ml); Patient 1 expanded PBL S2D9, T2 + 1 µg/ml peptide [6] was 26400 pg/mL, the IFN-γ (pg/ml); Patient 2 PBL S1D7, T2 + 0.1 ng/ml peptide [6] was 41 pg/mL and the IFN-γ (pg/ml); Patient 2 PBL S1D7, T2 + 1 ng/ml peptide [6] was 397 pg/mL. It also gave an IFN-γ (pg/ml); Patient 2 PBL S1D7, T2 + 10 ng/ml peptide [6] of 860 pg/mL, an IFN-γ (pg/ml); Patient 2 PBL S1D7, T2 + 100 ng/ml peptide [6] of 1100 pg/mL and an IFN-γ (pg/ml); Patient 2 PBL S1D7, T2 + 1 µg/ml peptide [6] of 1960 pg/mL. It also gave an IFN-γ (pg/ml); Patient 2 expanded PBL S2D9, T2 + 0.1 ng/ml peptide [6] of 747 pg/mL, an IFN-γ (pg/ml); Patient 2 expanded PBL S2D9, T2 + 1 ng/ml peptide [6] of 3550 pg/mL and an IFN-γ (pg/ml); Patient 2 expanded PBL S2D9, T2 + 10 ng/ml peptide [6] of 7350 pg/mL. The IFN-γ (pg/ml); Patient 2 expanded PBL S2D9, T2 + 100 ng/ml peptide [6] was 12700 pg/mL and the IFN-γ (pg/ml); Patient 2 expanded PBL S2D9, T2 + 1 µg/ml peptide [6] was 19500 pg/mL.
